Here are results for 1 molecule from PMC10699557, “A recombinant approach for stapled peptide discovery yields inhibitors of the RAD51 recombinase†” (Chemical Science, 2023).

The target in the assay is HumRadA22. Put plainly: fluorescence polarisation; competition: displacement of a fluorescently-labelled BRC4 repeat from HumRadA22; KD calculated from IC50; single titrations with three technical replicates at each point; mock (linear) samples with 500 uM TCEP. To be noted: both partners purified.

Bridge positions count the residues as written; N and C are the ends. Ends that are not written are not given here. DVT = divinyltriazine staple linking the two cysteines

As usually defined, the Kd is the equilibrium constant for the complex coming apart. Take VNSSAFSGFCTASGKKLNVSCEALQKAVKLFSDIENIS (linker 10-21 via DVT (inferred); also: His8 tag in name not shown in chain) [GB1-SP7-His8, stapled with DVT]: the Kd is 149 nM.
